# Assay results published in the nanobody polyreactivity screen of Harvey et al. (2022).
# Experiment: yeast display, Sf9 membrane polyspecificity reagent, FACS + sequencing; frameworks hold sequencing errors
# Method in brief: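 Nanobodies from a synthetic yeast display library (Saccharomyces cerevisiae BJ5465), induced 36–48 hours with galactose, were stained 1 hour at 4 °C with 10% biotinylated, detergent-solubilized Sf9 membrane reagent, enriched on streptavidin microbeads, then FACS-sorted. Anti-HA (expression) and streptavidin (reagent binding) fluorescence set low and high (top ~1%) gates. Polyreactivity labels come from the gate of origin. Genes were colony-PCR amplified, MiSeq 2 × 250 sequenced and filtered by CDR length.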
row,Sequence,polyreactivity (PSR sort gate)
1,QVQLVESGGGLVQAGGSLRLSCAASGRTFWYYAMGWYRQAPGKERELVAAITSGGSTNYADSVKGRFTISRDNAKNTVYLQMNSLKPEDTAVYYCAVDGLGGREGYWGQGTQVTVSS,high polyreactivity
2,QVQLVESGGVLVQAGGSLRLSCAASGSIFSSNAMGWYRQAPGKERELVAAISSSGGSTYYADSVKGRFTISRDNAKNTVYLQMNSLKPEDTAVYYCATGKQVYGHYYWGQGTQVTVSS,low polyreactivity
3,QVQLVESRGALVQAGASLRLSCAASALTFVKNVMGWYRQAPGKERELVAAISSGGSTYADSVKGRFTISRDNAKNTVYLQMNSLKPEDTAVYYCNADFRARNYHYYPRRFKYYYWGQGTQVTVSS,high polyreactivity
4,QVQLVESGGGLVQAGGSLRLSCAASGFTFDENAMGWYRQAPGINYSGASTYYADSVKGRFTISRDNAKNTVYLQMNSLKADDTAVYYCAAEVVAQMNYWGQGTQVTVSS,low polyreactivity
5,QVQLVESGAGLVKAGGSLRLSCASSGRILDFYDMGWYRQAPGKERELVAAITSGTSTYYADSVKGRFTISRDNAKYTVYLQMNSLKPEDTAVYYCAAAHVPVGQYVYWYDYWGQGTQVTVSS,low polyreactivity
6,HVQLVESGGGLFQAGGRLRVSCAASGNTIWGNAMGGSRQAPGKEREVVAAITGGGDTNYADSVKGRFTISRDNAKNTVYLQMNSLKPEDTAVYYCAADSSEWLLKDDYWGQGTQVTVSS,low polyreactivity
7,QVQLVESGGGLVQAGGSLRLSCAASGRTFLSYTMGWYRQATGKERELVAAITTSGGSTNYADSVKGRFSISRDTAKNTVYLQMNRLKPEDTAVYYCADEWSVYFNDPRSDYWGQGTQVTVSS,high polyreactivity
8,QVQLVESGGGLVQAGGSLRLSCAASGRTFRYYAMGWYRQTPGKERELVATISKSGGSTYYADSVKGRFTISRDNAKNTVYLQMNSLKPEDTAVYYCATSKSYSAFDYWGQGTQVTVSS,high polyreactivity
9,QVQLVESGGGLVQAGGSLRLSCAASGRIFTSNAMGWYRQAPGKEREFVAAITKRGGRTYYADSVKGRFTISRDNAKNTVYLQMNSLKPEDTAVYYCAAGATGTSYYGGDYWGQGTQVTVSS,high polyreactivity
10,QVQLVESGGGLVQAGGSLRLSCAASGRIFPFYVMGWYRQAHGKERELVATINWSGGSTYYADSVKGRFTISRDNAKNTVYLQMNRLKPEDTAVYYCNGAPSDDYDYWGQGTQVTVSS,low polyreactivity
11,QVQLVESGGGLVQAGGSLRLSCAASGSIFSLYAMGWYRQAPGKERELVATISKSGGSTYYADSVKGRFTISRDNAKNTVYLQMNSLKPEDTAVYYCAARLTYTGGQGAYDYWGQGTQVTVSS,high polyreactivity
12,QVQLVESGGGLVQAGGSLRLSCAASGSTFYFYAMGWYRQAPGKERELVASITVRGGRTYCADSVKGRFTISRDNAKNTVYLQMNSLKPEDTAVYYCAENWSYRAYDYWGQGTQVTVSS,low polyreactivity
13,QVQLVESGGGLVQAGGSLRLSCAACGSIFDRYVMGWYRQAPGKERELVAAISSSGGSTYYADSVKGRFTISRDNAKNTVYLQMNSLKPEDTAVYYCAAKFSYGRYNYWGQGTQVTVSS,high polyreactivity
14,QVQLVESGGGLVQAGGSLRLSSAASGITFGRNTMGWYRQAPGKEREFVAAIDSGGNTYADSVQGRFTISRDNAKNTVYLQMNSLKPEDTAVYYCAVAGGEFSSYGYLGQGTQVTVSS,low polyreactivity
15,QVQLVESGGGLVHAGGSLRLSCAASGFIFGINAMGWYRQAPGKERELVATITSGGGTNYADSVKGRFTISRDNAKNTVYLQMKSVKPEDTAVYYCADEDDYIYFYLSMDYWGQCTQVTVSS,low polyreactivity
16,QVHLVESGGGLVQAGGSLRLSCAASGFTFNLYAMGWYRQAPGQERELVAAINSSGGTYYADSVKGRFTLSRDNAKNTVYLQMNSLTAEDTAVYYCAADFPYTPWSYHHHVWSPDFVYWGQGTQVTVSS,low polyreactivity
17,QVQLVESGGGLVQAGGSLRLSCAASGRIFYGYVMGLYRQAPGKERELVAAISLSGGRTYYADSVKGRFTISRDNAKNTVYLQMNSLKPEDTAVYYCAAEGIKGISYGHDYWGQGTQVTVSS,low polyreactivity
18,QVQLVESGGGLVQAGGSLRLSCAASGFIFRLYAMGWYRQAPGKERELVAAISSSGGRTTYADSVKGRFTISRDNAKNTVYLQMNSLKPEDTAVYYCNADLWPGNHDGYWGQGTQVTVSS,low polyreactivity
19,QVQLVESGGGLVQAGGSLRLSCAASGLIFKSYAMGWYRQAPGKERELVAAITWSGGRTYYADSVKGRFTISRDNAKNTVYLQMNSLKPEDTAVYYCAGREYLPPYYYWGQGTQVTVSS,high polyreactivity
20,QLQLVESGGGLVQAGGSLRLSCAASGSIFHGNVMGRYRHAPGKEMELVAAISSSGGSTYYADSVKGRFTISRDIAKNTVYLQMNSLKPEDNAVYYCAARNRYWGQGTQVTVSS,high polyreactivity
21,QVQLVESGGGLVQAGGSLRLSCAASGRIFFYNAMGWYRQAHGKERELVAAISARGDRTYYADSVKGRFTISRDNAKNTVYLQMNSLKPEDTAVYYCAADYYNYRYDYWGQGTQVTVSS,high polyreactivity
22,QVQLVESGGGLVQAGGSLRLSCAASGSIFSYYAMGWYRQAPGKERELVAAISWTGGSTYYADSVKGRFTISRDNAKNTVYLQMNSLKPEDTAVYYCAADSPRSDRDSYDYWGQGTQVTVSS,high polyreactivity

row,Sequence,polyreactivity (PSR sort gate)
1,QVQLLESGGGLVQAGGSLRLSCAASGYTFQIKAMGWYRQAPGKERELVAAITSGGRTYYADSVKGLFTISRDNAKNTVYLQMNSLKPEDTAVYYCNKVPRRGVDYWGQGTQVTVSS,low polyreactivity
2,QVQLVESGGGLVQAGGSLRISCAASGFTFYYNAMGWYRQAPGKERELVASISSNGTSTYYADSVKGRFTISRDNAKNTVYLQMNSLKPEDTAVYYCNVDIFDPRTYDYWGQGTQVTVSS,low polyreactivity
3,QVQLVESGGGLVQAGGSLRLSCAASGIILGAYDMGLYRQAPGKERELVAAINRNGDRTYYADSVKGRFTISRDNAKNTVYLQMKSLKPEDTAVYFCAAPRVVRTFDYWGQGTQVTVSS,high polyreactivity
4,QVQLVESGGGLVQAGGSLRLRCAASGFTFTRYAMGWYRQAPGKERELVAVITSTAGSTYYADSVKGRFTISRDNAKNTVYLQMNSLKPEDTAVYYCAAESLVHGDVTLEEVVAQSYDYWGQGTQVTVSS,low polyreactivity
5,QVQLVESGGGLVQAGGSLRLSCAASGSTFSRYAMGWYRQAPGKERELVAAISSRGGSTYYADSVKGRFTISRDNAKNTVYLQMNSLKPEDTAVYYCNALTSYQNHVYPYDYWGQGTQVTVSS,high polyreactivity
6,QVQLVESGGGLDQAGGSLRLSCAASGSIFVHYAMGWYRQAPGKERELVAGITFRGGRTYYADSVKGRFTISRDNAKNTVYLQMNSLKPEDTAVYYCAALYSVRGGYPSSHRIRMEYCGQGTQVTVSS,high polyreactivity
7,QVQLVESGGGLVQEGGSLRLSCAASGFIFRGNGMGWYRQAPGKERELVAAIDSTDSKNYADSVKGRFTISRDNAKNTVYLQMNSLKPEDTAVYYCAAGVSWYGPYDYLWFYAFDYWGQGTQVTVSS,low polyreactivity
8,QVQLVESRGGLVQAGGSLRLSCAASGFIFLGNAMGWYRQAPGKERELVASISRGGSTNYADSVKGRFTISRDNAKNTVYLQMNSLKPEDTAVYYCAADLSDKFGYWGQGTQVTVSS,low polyreactivity
9,QVQLVESGGGLVQAGGSLRLSCAASGGTFHYYAMGWYRQAPGKERELVAAINRSGDSTYYADSVKGRFTISRDNAKNTVYLQMNSLKPEDTAVFYCAVSYYGADGNPFPHDYWGQGTQVTVSS,low polyreactivity
10,QVQLVESGGGLVQAGGSLRLSCAASGSTFSRNAMGWYRQAPGKERELVASISWSGARTYYADSVKGRFTISRDNAKNTVYLQMNSLKPEDTAVYYCAKFRSYRGPYNYWGQGTQVTVSS,high polyreactivity
11,QVQLVESGGGLVQAGGRLRLSCAASVRTFYYYVMGWYRQEPGNERELVAAISSGGSTYYADSVKGRFTISRDNAKNTVYLQMNSLKPEDTAVYYGAATKRYRDSYDYDYWGQGTQVTVSS,high polyreactivity
12,QVQLVESGGGLVQAGGSLRLSCAASGFIFTRYAMGWYRQAPGKERELVAVITSSGGTYYADSVKGRFTISRDNAKNTVYLQMNSLKPEDTAVYYCNAVLGYYTYDYWGQGTQVTVSS,high polyreactivity
13,QVQLVESGGGLVQAGGSLRLSCAASGRIFPYNAMGWYRQAPGKERELVASIRTGGGRTRYADSVKGRFTISRDNAKNTVYLQMNSLKPEDTAVYYCNADSSPRWYHYPTRYDYWGQGTQVTVSS,low polyreactivity
14,QVQLVESGGGLVQAGGSLRLSCAASGRIFSYYAMGWYRQAPGKERELVASITSGGSTYADSVKGRFTISRDNAKNTVYLQMNSLKPEDTAVYYCAKGYYWLSTYGDSRYGYWGQGTQVTVSS,high polyreactivity
15,QVQLVESGGGLVQAGGSLRLSSADSGRTFYGNAMGWYRQSPGKERELVAAISKRGGNTYYADSVKWRFTISRDNAKNTVYLQMNSLKPEDTAVYYCARQARTPSSWYIYDSWGQGTQVTVSS,high polyreactivity
16,QVQLVESGGGLVQAGGSLRLSCAASGSILKYYAMGWYRQAPGKERELVAAISSGGSTYYADSVKGRFTISRDNAKNTVYLQMNSLKPEDTAVYYCAAAWYGAKYIVLYDYWGQGTQVTVSS,low polyreactivity
17,QVQLVESGGGLVQAGGSLRLSCAASGRTFYSYAMGWYRQAPGKERELVAGITWSGTSTYYADSVKGRFTISRDNAKNTVYLQMNSLKPEDTAVYYCAAATLYSRYDYWGQGTQVTVSS,low polyreactivity
18,QVQLVESGGGLVQAGGSLRLSCSASGRIFGRYAMGWYRQAPGKERELVAAISASGGSTYYADSVKGRFTISRDNAKNTVYLQMNSLKPEDTAVYYCAADAPAEYYWGQGTQVSVSS,low polyreactivity
19,QVQLVESGGGLVQAGGSLRLSCAASGYTFNPYVMGWYSQAPGKERELVAAISSGGSTSYADSVKGRFTISRDNAKNTVYLQMNSLKPEDTAVYYCAADWSYYYSRNYESDYWGQGTQVTVSS,low polyreactivity
20,QVQLVESGGGLVQAGGSLRLSCAASGFTFRRNAMGWYRQAPGKERELVAAITGRGTGTYYADSVKGRFTISRDNAKNTVYLQMNSLKPEDTAVYYCNADPVRYLFTRYDYWGQGTQVTVSS,high polyreactivity
21,QVQLVESGGGLVQAGGSLRLSCASSGRIFKYNAMGWYRQAPGKERELVAAISSSGARTYYADSVKGRFTISRDNAKNTVYLQMNSLKPEDTAVDYCAAPFTSNRSIRPYGYWGQGTQVTVSS,high polyreactivity
